T1: FcγRIIb (human, UniProt P31994 43-217)
T1 construct: extracellular domain; also called FcgRIIb; 2b; not shown: His tag at the C terminus
T1 sequence (looked up): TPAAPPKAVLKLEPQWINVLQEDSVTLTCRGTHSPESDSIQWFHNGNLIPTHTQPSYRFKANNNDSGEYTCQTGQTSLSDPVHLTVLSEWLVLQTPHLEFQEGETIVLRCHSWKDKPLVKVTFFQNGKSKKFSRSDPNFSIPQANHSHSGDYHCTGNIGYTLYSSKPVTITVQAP

T2: FcγRIIa H (human, UniProt P12318 34-217)
T2 construct: extracellular domain; also called FcgRIIa H; 2aH; not shown: His tag at the C terminus
T2 sequence (looked up): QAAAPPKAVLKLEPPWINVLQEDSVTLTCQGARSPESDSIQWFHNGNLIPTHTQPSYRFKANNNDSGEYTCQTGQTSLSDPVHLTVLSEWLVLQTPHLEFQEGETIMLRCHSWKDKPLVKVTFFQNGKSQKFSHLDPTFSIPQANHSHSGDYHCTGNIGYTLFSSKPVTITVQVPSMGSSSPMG

B1: GpH7-A5/GpH7-B3 variant A330_13S/GpL16-k0 (antibody, human IgG1, kappa)
heavy 1: not shown
heavy 2: not shown
light: DIVMTQSPLSLPVTPGEPASISCQASESLVHSNRNTYLHWYLQKPGQSPQLLIYKVSNRFSGVPDRFSGSGSGTDFTLKISRVEAEDVGVYYCSQNTHVPPTFGQGTKVEIERTVAAPSVFIFPPSDEQLKSGTASVVCLLNNFYPREAKVQWKVDNALQSGNSQESVTEQDSKDSTYSLSSTLTLSKADYEKHKVYACEVTHQGLSSPVTKSFNRGEC
notes: He Ab: mutation in the GpH7-B3 H chain only
B2: GpH7-A5/GpH7-B3 variant I332_18N/GpL16-k0 (antibody, human IgG1, kappa)
heavy 1: not shown
heavy 2: not shown
light: DIVMTQSPLSLPVTPGEPASISCQASESLVHSNRNTYLHWYLQKPGQSPQLLIYKVSNRFSGVPDRFSGSGSGTDFTLKISRVEAEDVGVYYCSQNTHVPPTFGQGTKVEIERTVAAPSVFIFPPSDEQLKSGTASVVCLLNNFYPREAKVQWKVDNALQSGNSQESVTEQDSKDSTYSLSSTLTLSKADYEKHKVYACEVTHQGLSSPVTKSFNRGEC
notes: as for B1
B3: GpH7-A5/GpH7-B3 variant E333_11K/GpL16-k0 (antibody, human IgG1, kappa)
heavy 1: not shown
heavy 2: not shown
light: DIVMTQSPLSLPVTPGEPASISCQASESLVHSNRNTYLHWYLQKPGQSPQLLIYKVSNRFSGVPDRFSGSGSGTDFTLKISRVEAEDVGVYYCSQNTHVPPTFGQGTKVEIERTVAAPSVFIFPPSDEQLKSGTASVVCLLNNFYPREAKVQWKVDNALQSGNSQESVTEQDSKDSTYSLSSTLTLSKADYEKHKVYACEVTHQGLSSPVTKSFNRGEC
notes: as for B1
B4: GpH7-A5/GpH7-B3 variant I332_12R/GpL16-k0 (antibody, human IgG1, kappa)
heavy 1: not shown
heavy 2: not shown
light: DIVMTQSPLSLPVTPGEPASISCQASESLVHSNRNTYLHWYLQKPGQSPQLLIYKVSNRFSGVPDRFSGSGSGTDFTLKISRVEAEDVGVYYCSQNTHVPPTFGQGTKVEIERTVAAPSVFIFPPSDEQLKSGTASVVCLLNNFYPREAKVQWKVDNALQSGNSQESVTEQDSKDSTYSLSSTLTLSKADYEKHKVYACEVTHQGLSSPVTKSFNRGEC
notes: as for B1
B5: GpH7-A5/GpH7-B3 variant E333_13S/GpL16-k0 (antibody, human IgG1, kappa)
heavy 1: not shown
heavy 2: not shown
light: DIVMTQSPLSLPVTPGEPASISCQASESLVHSNRNTYLHWYLQKPGQSPQLLIYKVSNRFSGVPDRFSGSGSGTDFTLKISRVEAEDVGVYYCSQNTHVPPTFGQGTKVEIERTVAAPSVFIFPPSDEQLKSGTASVVCLLNNFYPREAKVQWKVDNALQSGNSQESVTEQDSKDSTYSLSSTLTLSKADYEKHKVYACEVTHQGLSSPVTKSFNRGEC
notes: as for B1
B6: GpH7-A5/GpH7-B3 variant I336_20W/GpL16-k0 (antibody, human IgG1, kappa)
heavy 1: not shown
heavy 2: not shown
light: DIVMTQSPLSLPVTPGEPASISCQASESLVHSNRNTYLHWYLQKPGQSPQLLIYKVSNRFSGVPDRFSGSGSGTDFTLKISRVEAEDVGVYYCSQNTHVPPTFGQGTKVEIERTVAAPSVFIFPPSDEQLKSGTASVVCLLNNFYPREAKVQWKVDNALQSGNSQESVTEQDSKDSTYSLSSTLTLSKADYEKHKVYACEVTHQGLSSPVTKSFNRGEC
notes: as for B1
B7: GpH7-A5/GpH7-B3 variant A330_18N/GpL16-k0 (antibody, human IgG1, kappa)
heavy 1: not shown
heavy 2: not shown
light: DIVMTQSPLSLPVTPGEPASISCQASESLVHSNRNTYLHWYLQKPGQSPQLLIYKVSNRFSGVPDRFSGSGSGTDFTLKISRVEAEDVGVYYCSQNTHVPPTFGQGTKVEIERTVAAPSVFIFPPSDEQLKSGTASVVCLLNNFYPREAKVQWKVDNALQSGNSQESVTEQDSKDSTYSLSSTLTLSKADYEKHKVYACEVTHQGLSSPVTKSFNRGEC
notes: as for B1
B8: GpH7-A5/GpH7-B3 variant N325_12R/GpL16-k0 (antibody, human IgG1, kappa)
heavy 1: not shown
heavy 2: not shown
light: DIVMTQSPLSLPVTPGEPASISCQASESLVHSNRNTYLHWYLQKPGQSPQLLIYKVSNRFSGVPDRFSGSGSGTDFTLKISRVEAEDVGVYYCSQNTHVPPTFGQGTKVEIERTVAAPSVFIFPPSDEQLKSGTASVVCLLNNFYPREAKVQWKVDNALQSGNSQESVTEQDSKDSTYSLSSTLTLSKADYEKHKVYACEVTHQGLSSPVTKSFNRGEC
notes: as for B1
B9: GpH7-A5/GpH7-B3 variant E333_01G/GpL16-k0 (antibody, human IgG1, kappa)
heavy 1: not shown
heavy 2: not shown
light: DIVMTQSPLSLPVTPGEPASISCQASESLVHSNRNTYLHWYLQKPGQSPQLLIYKVSNRFSGVPDRFSGSGSGTDFTLKISRVEAEDVGVYYCSQNTHVPPTFGQGTKVEIERTVAAPSVFIFPPSDEQLKSGTASVVCLLNNFYPREAKVQWKVDNALQSGNSQESVTEQDSKDSTYSLSSTLTLSKADYEKHKVYACEVTHQGLSSPVTKSFNRGEC
notes: as for B1
B10: GpH7-A5/GpH7-B3 variant I332_03V/GpL16-k0 (antibody, human IgG1, kappa)
heavy 1: not shown
heavy 2: not shown
light: DIVMTQSPLSLPVTPGEPASISCQASESLVHSNRNTYLHWYLQKPGQSPQLLIYKVSNRFSGVPDRFSGSGSGTDFTLKISRVEAEDVGVYYCSQNTHVPPTFGQGTKVEIERTVAAPSVFIFPPSDEQLKSGTASVVCLLNNFYPREAKVQWKVDNALQSGNSQESVTEQDSKDSTYSLSSTLTLSKADYEKHKVYACEVTHQGLSSPVTKSFNRGEC
notes: as for B1
B11: GpH7-A5/GpH7-B3 variant P329_02A/GpL16-k0 (antibody, human IgG1, kappa)
heavy 1: not shown
heavy 2: not shown
light: DIVMTQSPLSLPVTPGEPASISCQASESLVHSNRNTYLHWYLQKPGQSPQLLIYKVSNRFSGVPDRFSGSGSGTDFTLKISRVEAEDVGVYYCSQNTHVPPTFGQGTKVEIERTVAAPSVFIFPPSDEQLKSGTASVVCLLNNFYPREAKVQWKVDNALQSGNSQESVTEQDSKDSTYSLSSTLTLSKADYEKHKVYACEVTHQGLSSPVTKSFNRGEC
notes: as for B1
B12: GpH7-A5/GpH7-B3 variant N325_11K/GpL16-k0 (antibody, human IgG1, kappa)
heavy 1: not shown
heavy 2: not shown
light: DIVMTQSPLSLPVTPGEPASISCQASESLVHSNRNTYLHWYLQKPGQSPQLLIYKVSNRFSGVPDRFSGSGSGTDFTLKISRVEAEDVGVYYCSQNTHVPPTFGQGTKVEIERTVAAPSVFIFPPSDEQLKSGTASVVCLLNNFYPREAKVQWKVDNALQSGNSQESVTEQDSKDSTYSLSSTLTLSKADYEKHKVYACEVTHQGLSSPVTKSFNRGEC
notes: as for B1
B13: GpH7-A5/GpH7-B3 variant A330_14T/GpL16-k0 (antibody, human IgG1, kappa)
heavy 1: not shown
heavy 2: not shown
light: DIVMTQSPLSLPVTPGEPASISCQASESLVHSNRNTYLHWYLQKPGQSPQLLIYKVSNRFSGVPDRFSGSGSGTDFTLKISRVEAEDVGVYYCSQNTHVPPTFGQGTKVEIERTVAAPSVFIFPPSDEQLKSGTASVVCLLNNFYPREAKVQWKVDNALQSGNSQESVTEQDSKDSTYSLSSTLTLSKADYEKHKVYACEVTHQGLSSPVTKSFNRGEC
notes: as for B1
B14: GpH7-A5/GpH7-B3 variant I336_19Q/GpL16-k0 (antibody, human IgG1, kappa)
heavy 1: not shown
heavy 2: not shown
light: DIVMTQSPLSLPVTPGEPASISCQASESLVHSNRNTYLHWYLQKPGQSPQLLIYKVSNRFSGVPDRFSGSGSGTDFTLKISRVEAEDVGVYYCSQNTHVPPTFGQGTKVEIERTVAAPSVFIFPPSDEQLKSGTASVVCLLNNFYPREAKVQWKVDNALQSGNSQESVTEQDSKDSTYSLSSTLTLSKADYEKHKVYACEVTHQGLSSPVTKSFNRGEC
notes: as for B1
B15: GpH7-A5/GpH7-B3 variant E333_18N/GpL16-k0 (antibody, human IgG1, kappa)
heavy 1: not shown
heavy 2: not shown
light: DIVMTQSPLSLPVTPGEPASISCQASESLVHSNRNTYLHWYLQKPGQSPQLLIYKVSNRFSGVPDRFSGSGSGTDFTLKISRVEAEDVGVYYCSQNTHVPPTFGQGTKVEIERTVAAPSVFIFPPSDEQLKSGTASVVCLLNNFYPREAKVQWKVDNALQSGNSQESVTEQDSKDSTYSLSSTLTLSKADYEKHKVYACEVTHQGLSSPVTKSFNRGEC
notes: as for B1

Experiments:
FcγRIIb = biological target: T1, FcγRIIb; assay: SPR (Biacore), FcγR passed over captured antibody; binding amount as % of control GpH7-A5/GpH7-B3/GpL16-k0 (=100)
Procedure: (§1) The heterodimerized antibodies He Abs in which one of the H chains was introduced with an alteration were assayed for their binding activities to each activating FcγR and inhibitory FcγR according to the method described in Example 4. […] The activating FcγRs in FIGS. 26, 27, 28, and 29 are FcγRIa, FcγRIIa (R), FcγRIIa (H), and FcγRIIIa, respectively.
(§2) Analysis of interaction between objective antibody and the FcγR was carried out using Biacore T100 (GE Healthcare). HBS-EP+ (GE Healthcare) was used as the running buffer, and the measurement temperature was set to 25° C. Chips produced by immobilizing the antigen peptide by the amine coupling method to a Series S Sencor Chip CM5 (GE Healthcare), or alternatively, chips produced by allowing preliminarily biotinylated antigen peptides to interact with and immobilize onto a Series S Sensor Chip SA (certified) (GE Healthcare) were used. Antibodies of interest were captured onto an antigen peptide-immobilized chip, and allowed to interact to each FcγR diluted with running buffer. To regenerate and repeatedly use the chip, the antibodies captured on the chip were washed off by reacting 10 mM glycine-HCl, pH 1.5.

FcγRIIa H [1] = biological target: T2, FcγRIIa H; assay: as above
Procedure: as §1, §2

FcγRIIa H [2] = biological target: T2, FcγRIIa H; assay: SPR (Biacore); He/Con_2aH divided by He/Con_2b (FcγRIIa H versus FcγRIIb)
Procedure: as §1, §2

Binder	He/Con_2b (FcγRIIb)	He/Con_2aH (FcγRIIa H [1])	He_2aH/2b (IIaH/IIb) (FcγRIIa H [2])
B1	41.3 relative, control = 100	65.4 relative, control = 100	1.58 ratio
B2	89.9 relative, control = 100	110 relative, control = 100	1.22 ratio
B3	80.6 relative, control = 100	98.1 relative, control = 100	1.22 ratio
B4	48.9 relative, control = 100	87.8 relative, control = 100	1.8 ratio
B5	81.8 relative, control = 100	101 relative, control = 100	1.23 ratio
B6	20.3 relative, control = 100	30.9 relative, control = 100	1.52 ratio
B7	63.7 relative, control = 100	81.6 relative, control = 100	1.28 ratio
B8	19.1 relative, control = 100	29.9 relative, control = 100	1.56 ratio
B9	81.4 relative, control = 100	97.7 relative, control = 100	1.2 ratio
B10	80.7 relative, control = 100	105 relative, control = 100	1.3 ratio
B11	40.5 relative, control = 100	65.7 relative, control = 100	1.62 ratio
B12	10.4 relative, control = 100	16.1 relative, control = 100	1.55 ratio
B13	77.9 relative, control = 100	94.5 relative, control = 100	1.21 ratio
B14	58.2 relative, control = 100	73.7 relative, control = 100	1.27 ratio
B15	76.1 relative, control = 100	96.2 relative, control = 100	1.26 ratio

From US20150344570A1 (published 2015)
